Data on three substances can be found in article PMC11032447.

Common to all, as to assay: ITC; secretagogin construct in the cell (10-100 µM), partner in the syringe (80-1500 µM); 25 mM HEPES pH 8.0, 150 mM NaCl, 2 mM CaCl2; 20 °C; MicroCal iTC200; single-site binding model
In general terms: Isothermal titration calorimetry measures the heat released or taken up as one component is titrated into another.

Assay [1] addresses mouse secretagogin (mouse) (UniProt Q91WD9).
The target in assay [2] is mouse secretagogin M229A (mouse) (UniProt Q91WD9).
Assay [3] concerns the target mouse secretagogin R198A (mouse) (UniProt Q91WD9).
Assay [4] has as its target mouse secretagogin V233A (mouse) (UniProt Q91WD9).
For assay [5], the target named is mouse secretagogin M229E (mouse) (UniProt Q91WD9).
In assay [6] the target is mouse secretagogin L270A (mouse) (UniProt Q91WD9).

As a reminder, the Kd is the constant that tells how readily two partners part at equilibrium.

Sequence of mouse secretagogin (mouse) (Q91WD9 whole entry): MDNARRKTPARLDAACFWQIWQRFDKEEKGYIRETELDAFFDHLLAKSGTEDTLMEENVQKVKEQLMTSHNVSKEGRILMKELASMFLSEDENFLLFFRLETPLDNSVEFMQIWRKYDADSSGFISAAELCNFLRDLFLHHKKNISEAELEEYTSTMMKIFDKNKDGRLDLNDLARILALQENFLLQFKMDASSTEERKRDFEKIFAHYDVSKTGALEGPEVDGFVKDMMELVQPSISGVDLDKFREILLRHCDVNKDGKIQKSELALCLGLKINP
Sequence of mouse secretagogin M229E (mouse) (Q91WD9 whole entry M229E): as the sequence (Q91WD9 whole entry) above, with M229E counted along it
Sequence of mouse secretagogin M229A (mouse) (Q91WD9 whole entry M229A): as the sequence (Q91WD9 whole entry) above, with M229A counted along it
Sequence of mouse secretagogin R198A (mouse) (Q91WD9 whole entry R198A): as the sequence (Q91WD9 whole entry) above, with R198A counted along it
Sequence of mouse secretagogin L270A (mouse) (Q91WD9 whole entry L270A): as the sequence (Q91WD9 whole entry) above, with L270A counted along it
Sequence of mouse secretagogin V233A (mouse) (Q91WD9 whole entry V233A): as the sequence (Q91WD9 whole entry) above, with V233A counted along it

In turn, “Ha helix of the Habc domain of mouse syntaxin-4, His6-tagged (from UniProt P70452 1-298) (domain or fragment)” gave a dissociation constant (Kd) in assay [1] of 6.67 µM.
On the same count and under the same terms, then “Habc domain of mouse syntaxin-4, His6-tagged (from UniProt P70452 1-298) (domain or fragment)”, with 14.1 µM.
With “Hb helix of the Habc domain of mouse syntaxin-4, His6-tagged (domain or fragment)”, the dissociation constant (Kd) is 1620 nM in assay [2]; 808 nM in assay [3]; 125 nM in assay [4]; 5.21 µM in assay [5]; 16.2 µM in assay [6].
